Patent US20250188136A1, “AV3 MUTANT POLYPEPTIDES FOR PEST CONTROL” (Vestaron Corporation, priority 2021, published 2025)
“Also recorded” adds a separate entry of the source. Ends that are not written are not given here.

How the values were obtained:
[1] = test system: houseflies; assay: Housefly injection assay (knock-down); format: in vivo, Musca domestica; settings: for Activity: knock-down at 5 hours post-injection normalized to Av3b, Yes = insecticidal activity maintained; for housefly knock-down / insecticidal activity relative to Av3b: knock-down at 5 hours post-injection
Procedure: An exemplary housefly injection bioassay is as follows: conditioned media is serially diluted to generate full dose-response curves from the housefly injection bioassay. Before injection, adult houseflies (Musca domestica) are immobilized with CO2, and 12-18 mg houseflies are selected for injection. A microapplicator, loaded with a 1 cc syringe and 30-gauge needle, is used to inject 0.5 μL per fly, doses of serially diluted conditioned media samples into houseflies through the body wall of the dorsal thorax. The injected houseflies are placed into closed containers with moist filter paper and breathing holes on the lids, and they are examined by knock-down ratio or by mortality scoring at 24 hours post-injection. Normalized yields are calculated. Peptide yield means the peptide concentration in the conditioned media in units of mg/L. However, peptide yields are not always sufficient to accurately compare the strain production rate. […] A culture with a high cell density may produce a higher concentration of the peptide in the media, even though the peptide production rate of the strain is lower than another strain which has a higher production rate. Accordingly, the term “normalized yield” is created by dividing the peptide yield with the cell density in the corresponding culture and this allows a better comparison of the peptide production rate between strains. The cell density is represented by the light absorbance at 600 nm with a unit of “A” (Absorbance unit).
A housefly injection assay was performed to determine the activity of the new mutants. Adult houseflies were immobilized with CO2 for 10 minutes, and then transferred to a CO2 pan to keep immobilized. Flies with weight between 12-20 mg were picked for injection. The new mutants and Av3b control were diluted in water to proper doses for injection. Next, a 0.5 μL peptide solution was injected into each housefly at the dorsal thorax using a hand-microapplicator with 1 cc all-glass syringe with 30 gauge straight needle. The injected flies were then transferred to a 2 oz. transparent portion container with a wet #4 filter paper. Fly knock-down was assessed at 5-hours post-injection. The activity of a given new mutant was then normalized to the activity of the Av3b production strain (control), using the fly knock-down score at 5 hours.

[2] = Proteolytic resistance of Av3b mutants during production-strain fermentation (rpHPLC); format: physicochemical; settings: for Degradation?: mutant strain fermentation at pH 6.5, 140 hours, rpHPLC; for degradation product during fermentation (HPLC): production strain fermentation at pH 6.5, rpHPLC
Procedure: The mutants in the table below were evaluated for stability in fermentation beer. Fermentation conditions and HPLC analysis were performed as described above. The mutant production strains were generated using YCT306 K. lactis strain. The production of mutants was performed as described in Example 2; fermentation conditions were performed using the same fermentation process described above regarding the Av3b production strain, with pH control at pH 6.5. […] To identify the mutant with proteolytic resistance, the mutant strains were grown under the same fermentation conditions as Av3b, and samples were taken throughout the fermentation process. The samples taken at 140 hour of fermentation process were analyzed in rpHPLC.

[3] = Stability of purified peptide spiked into Av3b fermentation beer (rpHPLC); format: physicochemical; settings: for resistance to fermentation beer protease cleavage compared to Av3b: spiked into Av3b fermentation beer pH 6.5, room temperature
Procedure: To determine the stability of the new mutants, Av3bM19, Av3bM23, Av3bM24, Av3bM25, Av3bM27, and Av3bM28 were purified and incubated in Av3b fermentation beer. The mutants were purified by cation-exchange chromatography using a GE SP-Sephadex C-25 column. The column was first calibrated with 30 mM sodium citrate buffer at pH 3.0. Then, the culture supernatant containing the secreted mutant peptide was loaded into the column to let the mutant peptide bind to the resin. The column was then washed with 30 mM sodium citrate buffer, pH 3.0, followed by washing with 30 mM sodium acetate, pH 4.0. Next, the bound mutant peptide was eluted by 1 M or 2 M NaCl with 30 mM sodium acetate, pH 4.0. The elution was then concentrated and buffer-exchanged to 30 mM sodium acetate, pH 4.0 using a 1 kD cutoff spin concentrator.
After purification, each of the mutants, Av3bM19, Av3bM23, Av3bM24, Av3bM25, Av3bM27, and Av3bM28, were evaluated for stability by spiking them into Av3b strain fermentation beer at pH 6.5. As a negative control, Av3b was evaluated in a pH 4.0 buffer. As a positive control, purified Av3b was evaluated by spiking into the same Av3b fermentation beer at pH 6.5. All stability experiments were performed at room temperature. […] The amount of peptide remaining relative to the beginning was determined by normalizing the peak area at different time to the one at 0 hour for each treatment. The degradation trend is visualized by the bar graph of the relative remaining peptide amount trend.

Row | Sequence | Activity [1] | Degradation? [2] | other results
1 | KSCCPCYWGGCPWGTTCYPNGCDGPK (Av3bM20; VARIANT (1)..(26) Recombinant variant of Anemonia viridis Av3 peptide) | No | – | –
2 | QSCCPCYWGGCPWGQNCYPEGCSGPH (ends and bridges not checked; cysteine pairing not given here) [Av3bM30] | No | – | –
3 | KSCCPCYWGGCPWGQNCYPEGCTGPG (ends and bridges not checked; cysteine pairing not given here) [Av3bM169] | – | Yes | –
4 | KSCCPCYWGGCPWGQNCYPEGCSGGV (ends and bridges not checked; cysteine pairing not given here) [Av3bM146] | – | Yes | –
5 | KSCCPCYWPGCPWGQNCYPEGCRGPD (ends and bridges not checked; cysteine pairing not given here) [Av3bM125] | – | – | half-degradation time ([3]; Av3b production fermentation beer pH 6.5, room temperature (Example 12, FIG. 39)): 369 h; resistance to fermentation beer protease cleavage compared to Av3b [3]: dramatically improved resistance to degradation
6 | KSCCPCYWGGCPWGQNCYPEGCDGPT (ends and bridges not checked; cysteine pairing not given here) [Av3bM157] | – | Yes | –
7 | HSCCPCYWGGCPWGQNCYPEGCSGPK (ends and bridges not checked; cysteine pairing not given here) [Av3bM28] | Yes | – | housefly knock-down / insecticidal activity relative to Av3b [1]: without a concomitant reduction in housefly knock-down activity; also recorded: insecticidal activity
8 | KSCCPCYWGGCPWGQNCYPEGCSGPR (ends and bridges not checked; cysteine pairing not given here) [Av3bM98] | – | No | degradation product during fermentation (HPLC) [2]: did not show any degradation product; also recorded: no degradation product
9 | KSCCPCYWGGCPWGQNCYPEGCDGPA (ends and bridges not checked; cysteine pairing not given here) [Av3bM156] | – | Yes | –
10 | SSCCPCYWGGCPWGQNCYPEGCSGPK (ends and bridges not checked; cysteine pairing not given here) [Av3bM32] | No | – | –
11 | KSCCPCYWGGCPWGQNCYPNGCSGPK (Av3bM23; VARIANT (1)..(26) Recombinant variant of Anemonia viridis Av3 peptide) | Yes | – | housefly knock-down / insecticidal activity relative to Av3b [1]: without a concomitant reduction in housefly knock-down activity; also recorded: insecticidal activity
12 | KSCCPCYWGGCPWGQNCYPEGCSGPA (ends and bridges not checked; cysteine pairing not given here) [Av3bM97] | – | Yes | –
13 | KSCCPCYWAGCPWGQNCYPEGCSGPK (ends and bridges not checked; cysteine pairing not given here) [Av3bM27] | Yes | – | housefly knock-down / insecticidal activity relative to Av3b [1]: behaved like Av3b; also recorded: insecticidal activity comparable to Av3b
14 | KSCCPCYWGGCPWGQNCYPEGCSGPH (ends and bridges not checked; cysteine pairing not given here) [Av3bM104] | – | Yes | –
15 | KSCCPCYWGGCPWGQTCYPEGCSGPK (ends and bridges not checked; cysteine pairing not given here) [Av3bM22] | No | – | –
16 | KSCCPCYWGGCPWGQNCYPEGCSGPKVI [Av3bM168] | – | Yes | –

Row | Sequence | Activity [1] | Degradation? [2] | other results
17 | SSCCPCYWGGCPWGQNCYPEGCSGPT (ends and bridges not checked; cysteine pairing not given here) [Av3bM33] | No | – | –
18 | KSCCPCYWGGCPWGQNCYPEGCSGPQ (ends and bridges not checked; cysteine pairing not given here) [Av3bM102] | – | Yes | –
19 | KSCCPCYWPGCPWGQNCYPEGCSGPK (ends and bridges not checked; cysteine pairing not given here) [Av3bM25] | Yes | – | housefly knock-down / insecticidal activity relative to Av3b [1]: without a concomitant reduction in housefly knock-down activity; also recorded: insecticidal activity
20 | KSCCPCYWGGCPWGQNCYPEGCSGPE (ends and bridges not checked; cysteine pairing not given here) [Av3bM101] | – | Yes | –
21 | KSCCPCYWGGCPWGQNCYPEGCDGPG (ends and bridges not checked; cysteine pairing not given here) [Av3bM171] | – | Yes | –
22 | KSCCPCYWGGCPWGQNCYPEGCSGPT (ends and bridges not checked; cysteine pairing not given here) [Av3bM111] | – | Yes | –
23 | KSCCPCYWGGCPWGQNCYPEGCDGP (ends and bridges not checked; cysteine pairing not given here) [Av3bM172] | – | Yes | –
24 | KSCCPCYWGGCPWGQNCYPEGCSGPN (ends and bridges not checked; cysteine pairing not given here) [Av3bM99] | – | Yes | –
25 | KSCCPCYWGGCPWGQNCYPEGCSGRV (ends and bridges not checked; cysteine pairing not given here) [Av3bM147] | – | Yes | –
26 | KSCCPCYWGGCPWGQDCYPDGCDGPK (Av3bM19; VARIANT (1)..(26) Recombinant variant of Anemonia viridis Av3 peptide) | Yes | – | housefly knock-down / insecticidal activity relative to Av3b [1]: without a concomitant reduction in housefly knock-down activity; also recorded: insecticidal activity; half-degradation time ([3]; Av3b production fermentation beer pH 6.5, room temperature (Example 11, FIG. 37)): 666 h; peptide remaining ([3]; fermentation beer pH 6.5, room temperature, 248 hours, HPLC peak area relative to starting amount): 95%; resistance to fermentation beer protease cleavage compared to Av3b [3]: greater resistance to yeast fermentation beer protease cleavage; also recorded: improved resistance to fermentation beer cleavage; also recorded: resist the degradation in Av3b fermentation beer
27 | TSCCPCYWGGCPWGQNCYPEGCSGPK (ends and bridges not checked; cysteine pairing not given here) [Av3bM31] | No | – | –
28 | KSCCPCYWGGCPWGTNCYPEGCSGPK (ends and bridges not checked; cysteine pairing not given here) [Av3bM21] | No | – | –
29 | KSCCPCYWPPCPWGQNCYPEGCSGPK (ends and bridges not checked; cysteine pairing not given here) [Av3bM26] | No | – | –
30 | KSCCPCYWGGCPWGQNCYPEGCSGPD (ends and bridges not checked; cysteine pairing not given here) [Av3bM100] | – | Yes | –
31 | KSCCPCYWGGCPWGQNCYPEGCSGPKG [Av3bM148] | – | No | degradation product during fermentation (HPLC) [2]: did not show any degradation product; also recorded: without apparent degradation products
